Measured values from the DeepSol protein solubility set.

Assay: soluble on expression in E. coli; label from the status in PepcDB or PDB records

| Sequence | soluble on expression in E. coli |
| --- | --- |
| MGKEKVHINIVVIGHVDSGKSTTTGHLIYKCGGIDKRTIEKFEKEAQEMGKGSFKYAWVLDKLKAERERGITIDIALWKFETAKYYITIIDAPGHRDFIKNMITGTSQADCAVLVVACGTGEFEAGISKNGQTREHALLAQTLGVKQLIVACNKMDSTEPPFSEARFTEITNEVSGFIKKIGYNPKAVPFVPISGFNGDNMLEVSSNMPWFKGWAVERKEGNASGKTLLEALDSIIPPQRPTDRPLRLPLQDVYKIGGIGTVPVGRVETGIIKPGMVVTFAPQNVTTEVKSVEMHHESLPEAVPGDNVGFNVKNVSVKDIRRGSVCSDSKQDPAKEARTFHAQVIIMNHPGQISNGYTPVLDCHTAHIACKFNELKEKVDRRTGKKVEDFPKFLKSGDAGIVELIPTKPLCVESFTDYAPLGRFAVRDMRQTVAVGVIKSVEKSDGSSGKVTKSAQKAAPKKK | not soluble |
| MSLSPAQLAAVRRSFRNGRASLTRRSLLRASAGGALAVGGLGALSACGIPAAGRTEGGVSAEDHSAEEKTINFSNWPEYIDVDDSGKRHPTLDAFAKRTGIQVKYTEDINDNDEFFGKIQPQLAAGQSTGRDLIVLTDWLAARMIRLGYVQKLDPSHLPHAFANLSDQFRAPDWDPGRAYSYPWQGISTVIAYNKKALDGVEVKSVSDLLDNPKLKGRVGFLTEMRDSVGMTMLDMGKDPAKFTDDDYDAVIARLQKAVDKGQIRRFTGNDYTSDLSKGDFAACIAWAGDIVQLQADNPDVGYVIPDSGYMTSTDNMLIPNKARHKTNAERLIDYYYELEPAAELAAYINYVSPVAGVQPYLAKIDKSAADNPLIVPDKAMQAKSHAFRSLSSKEETAYQQKFAKLTGAEGHHHHHH | soluble |
| MYRSEVSKPQLENPNLVDRIIVIILPNYFYEYESVLKHITKENFGIIEKTVKHFKTEEVMEWKSADLESQDIWNLSDRLIDGPCMLLLCQRANAFIEMKEVAKYHNVIAKRMSSSDGIYYSKTTIAAYHDIIFFFPKYIDERAMLKHAKDYLSVEVWPKLSQGLARVAVERPDNPIKWLADYLHQLRQ | not soluble |
| MDFECQFVCELKELAPVPALLIRTQTTMSELGSLFEAGYHDILQLLAGQGKSPSGPPFARYFGMSAGTFEVEFGFPVEGGVEGSGRVVTGLTPSGKAASSLYIGPYGEIEAVYDALMKWVDDNGFDLSGEAYEIYLDNPLEHHHHHH | not soluble |
| MVKKLYIKTNGCQMNEYDSSKMAEVLYASHGLVKTDQVEDADVILLNTCSIREKAQEKVFSQLGQWREYKAKNPHVLIGVGGCVASQEGSDIIKRAPFVDIVFGPQTLHRLPALLNERLEKNKSVVDISFPEIEKFDHLPAPRAEGPTAFVSIMEGCSKYCSFCVVPYTRGEEISRPFDDVLAECYQLASQGVREINLLGQNVNDYRGIMDNGDIADLALLIHYIAAIDGIGRIRFTTSHPLAFSENLINAYAEVPELANHLHLPVQSGSDRILSLMKRGYTALEFKSKIRKLRKIRPDIRLSTDIIVGFPGETDKDFQDTMDLVHEIGFDTSFSFIYSPRPGTPAANLPDDTPMEIKKQRLQILQNRLLMNAARYSESMIGSKQKILVTGFSKKSSQQLSGRTECNRVVNFDGPPHLIGQFIDVQISDALPNSLRGRLLEKEMQPALEHHHHHH | soluble |
| MGHHHHHHSHMFLQYYLNEQGDRVYTLKKFDPMGQQTCSAHPARFSPDDKYSRHRITIKKRFKVLMTQQPRPVL | not soluble |
| MRFLSLLCPPVERAAVMRPPYTTHLQRVPLMRKSLLALSLLAATSAPVLAADYSDGDIHKNDYKWMQFNLMGAFDELPGKSSHDYLEMEFGGRSGIFDLYGYVDVFNLATNKSSDKVGDPKIFMKFAPRMSLDAFTGVDMSFGPVQEVYVASLFEWDGTDFKTNAFSVNNQKIGLGSDVMVPWFGKVGLNLYGTYDGNRKDWNGFQISTNWFKPFYFFENGSFISYQGYIDYQFGLKDEYSTASNGGAMFNGIYWHSDRFAVGYGLKGYKDVYGIKDTDGFKSTGFGHYVAVTYKF | not soluble |
| MKRVALLAVGSFNPPTIAHLRMLEVARSHLETINTQVVEGIMSPVADSYNNKPTLIKSNFRIQMVRAATKSSDWIRADDWECTRTTWTRTIDVLRHHRELVQEKFGSDVGMMLVVGGDVVDSFTRILPDGSNLWNSSDIRTIITEFGLIVLSREGSNPLNTIQSMPAISEFCDRIIQVKDEVCPSGVSSTRLRAAIMNKKSIKYSTPDEVINFIRENNLYQKI | not soluble |
| MSNLPFHQFCGTEGYVASRALQDVVNVAIALERPLLLKGEPGTGKTLLAYHIAKALGMEIILWNVKSTTKARDGLYTYDTVQRLNDARFGDGDVRDIRHYIKLGPLGRAFGSAERVVLLIDEVDKADIEFPNDLLFELDEMRFHVLETDEWVSAAHRPVVIVTSNSEKELPDAFLRRCVFHYIDFPDETQMRAIIDVHFPDLPAELMRSACKVFYGLREVPGLRKRPSTSELLDWIRVLLASGARLPEEETPALQSVPFLGALVKIQEDADILAHHASRSADVRTAGRRFFRLEHHHHHH | not soluble |
| IKDFNYGVKFVLSDDQRKVTRYPNEELNRNQWYAGRMDGLVWGYETVGIAKTDAEMEAHLASLPNGGQSQLGSKWAAGDIMYKDLNGDGKISSGDGTLNDLGDLKVVANTQLRFKYGLTLDASWKGFDFSAFFQGVGKRDVVVGGPYFWGANGQGMWQAAAFKDHMDYFRPEDTESVFGPNVDAYYPRVIFGGGSSEGGKNTLTQSRYVQNGAYIRLKNLQLGYTLPSTITKKFAVNSLRVYVSGDNLWTGTKMRVFDPEVLGSTGDAGKAYPLARVWSVGLNVNF | not soluble |
| MGSDKIHHHHHHMLARGKTNLKIEEIRMHKHHEIHRVKPLMPALCRIRQGKKVINWETHTLTVDNNQIILFPCGYEFYIENYPEAGLYLAEMLYLPIDLIESFQKLYTVTDQIRNKTSFFLPQNPELIYCWEQLKTSVSRGFSTKIQEHLAMGVLLSLGVNHVNHLLLSYSKQSLISRCYNLLLSEPGTKWTANKVARYLYISVSTLHRRLASEGVSFQSILDDVRLNNALSAIQTTVKPISEIARENGYKCPSRFTERFHNRFNITPREIRKASRE | not soluble |
| MSTHEKLLTADNPVLHQRAKAMRQEMSEAEAKLWQHLRAGRLNGYKFRRQQPMGNYIVDFMCVTPKLIVEADGGQHAEQAVYDHARTAYLNSLGFTVLRFWNHEILQQTNDVLAEILRVLQELEKQYAQ | not soluble |
| GPGSMYSKTPCVLGMPYEAAGAVLCNNPYRSQALSWYRKFLKAAFTVPWETDDDALYVMEESRRLFRQNARLTDVEMIQRKLREAEMRYELGVHYRIPYPRPVHKMQGSLQESGVPYAADLDSMYDHPVNPRTGRISEGSANYGVMGGVDNSNELLEGEMGADAEDFSK | soluble |
| MSLTVWKTLEKTNHSQSEILSQLIEESDAIVVGIGAGMSAADGFTYIGPRFEEAFPDFIAKYQLLDMLQASLYDFEDWEEYWAFQSRFVALNYLDQPVGQAYLDLKDILAKKEYHIITTNADNAFAVADYNLEKVFHIQGEYGLWQCSQHCHQQTYRNDQAIRQMIAQQKDMKIPSNLIPKCPKCDQPFEINKRNEEKGMVEDADFHAQRQRYENFLSQHQNDKVLYLEIGVGHTTPQFIKHPFWRFVSLNENSLFVTLNHKHYRIPQKIRSRSVQLTQHIAELIAEAKKEIIGEGHHHHHH | soluble |
| MAATITDDIVATVLESIEEKSYEDEKEKAGMIKDEANQFFKDQVYDVAADLYSVAIEIHPTAVLYGNRAQAYLKKELYGSALEDADNAIAIDPSYVKGFYRRATANMALGRFKKALTDYQAVVKVCPNDKDARAKFDECSKIVRRQKFEAAISTDHDKKTVAETLDINAMAIEDSYDGPRLEDKITKEFVLQLIKTFKNQQKLHKKYAFKMLLEFYNYVKSLPTMVEITVPTGKKFTICGDVHGQFYDLCNIFEINGYPSETNPYLFNGDFVDRGSFSVETIFTMIGFKLLYPNHFFMSRGNHESDVMNKMYGFEGEVKAKYTQQMCDMFTETFCWLPLCHLINEKIFVCHGGLFKEDGVTLEDIRKTDRNRQPPDEGIMCDLLWEKNWKNLKILYPDGKINKNSNCQPKTCKNASDPQPINGRSPSKRGVGCQFGPDVTSKWCETNGIEYVVRSHEVKPEGYEMHHNGQCFTVFSAPNYCDQMNNKGAFITITGDNLTPRFTPFDAVPHPKLPPMAYANSLFGFN | not soluble |
| MSIFNGIKEEQMDILREVGNIGAGHSASAMAQLLNRKIDMEVPFAKLLSFDELVDFFGGADVPVASIFLRMEGDLTGSMFFIMPFFQAEQFIRELIGNPDFDIEDLGEDHMSSSALHELGNILAGSYLTALADLTKLQLYPSVPEVSLDMFGAVISEGLMELSQVGEHAIVVDTSIFDQSHQQELKAHMFMLPDYDSFEKLFVALGASL | soluble |
| MTARDDETIAFYSGHATAYTSRGQAPDRPHLETFLARLRAGAKILELGCGGGQDSEYMLSAGFDVHPTDGTPDIAKAAQARLGIPVRTLLFENIEDAALYDAVWANACLLHVPRLALPGIIGRIHTALKPGGVFYASFKAGEVEGRDTFGRYYNYPSKAWLEETYGQFAWTEVEIEARQGSGYDKLPTDWLHVTATKA | soluble |
| YCICNQVSYGEMVGCDNQDCPIEWFHYGCVGLTEAPKGKWYCPQCTAAMKRRGSRHK | soluble |
| TFDIDLQQYGEKLLQNKIGCVVAIEPQTGEILAFISSPTYDPNLLTGRKYSANYKELEKDPYKPLFNRPLMAMYPPGSIFKLAQAAVALQEGVITDKSRFPCDKTLVNCHNHPSPQDLRGAIQWSCNPYFYMVYKKMISQDKNPNKFKDTEINFDEWRHNMLTLGFGQKMLVDLPSSKSGNIPSNAYYDKIYGDLHWKFSTIYSLSIGQGEINVVPIQMANLAALIANKGWYITPHFIKSIGKDGHILEEYKNKHVTSVEPKYFEPIIDGMEQVVLGGTAYWLKIKDIDICGKTGTAENPHGDDHSVYIAFAPKKEPKIAIAVYVENAGFGAMTAAPIAHLMIEKYLKDTITRKPLEDMILNKNLLHKVKVKP | not soluble |
| MSSRKGTRSSRIVTLERSANSSLSNNGGGDDSFGSTLLETSRLQEKDHLTSLNSRLATYIDKVRQLEQENNRLQVQIRDIEVVEKKEKSNLADRFEAEKARLRRALDSAQDELAKYRIEYDAAKVEVKKLKPQVEKLERELAGAEEQALHAQSIADQSQAKQKTLQARNDKLVVENDDLKKQNITLRDTVEGLKKAVEDETLLRTAANNKIKALEEDLAFALQQHKGELEEVRHKRQVDMTTYAKQINDEYQSKLQDQIEEMRAQFKNNLHQNKTAFEDAYKNKLNAARERQEEAVSEAIHLRARVRDLETSSSGNASLIERLRSELDTLKRSFQEKLDDKDARIAELNQEIERMMSEFHDLLDVKIQLDAELKTYQALLEGEEERLNLTQEAPQNTSVHHVSFSSGGASAQRGVKRRRVVDVNGEDQDIDYLNRRSKLNKETVGPVGIDEVDEEGKWVRVANNSEEEQSIGGYKLVVKAGNKEASFQFSSRMKLAPHASATVWSADAGAVHHPPEVYVMKKQQWPIGDNPSARLEDSEGDTVSSITVEFSESSDPSDPADRCSIM | not soluble |
| MIFTTQVKYTYDTLSTFPEDMPSREGFTLISDHFGAGMLAPMEVVVNSKESMKSSLENVNGVASVTGPERSKGYQKYTLILKDNPYSNEAMDVVPKVRAAADKGNDVYIAGQTATQYDDRAVTEHDEKVIIPLEHHHHHH | soluble |
